Results as given in patent publication US20220089730A1 (published 2022).

What was measured:
[1] = target: T1, PSMA (Prostate-Specific Membrane Antigen), glutamate carboxypeptidase 2 (UniProt Q04609 1-750); test: FACS; C4-2 XCL cells
[2] = target: T1, PSMA (Prostate-Specific Membrane …); test: FACS; LNCaP-AR cells
[3] = target: CD8 (cell surface CD8 on HPB-ALL cells) (UniProt P01732 22-235; A6NJW9 19-210); test: FACS
[4] = target: T1, PSMA (Prostate-Specific Membrane …); test: FACS

Chain of CD8 (cell surface CD8 on HPB-ALL cells) (P01732 22-235, chain 1 of 2): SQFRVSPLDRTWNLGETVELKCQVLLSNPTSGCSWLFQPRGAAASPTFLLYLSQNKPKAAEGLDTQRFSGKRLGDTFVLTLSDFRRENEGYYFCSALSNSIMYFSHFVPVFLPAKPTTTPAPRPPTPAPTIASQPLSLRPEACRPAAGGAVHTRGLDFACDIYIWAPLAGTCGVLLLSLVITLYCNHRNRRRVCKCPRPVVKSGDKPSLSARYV
Chain of CD8 (cell surface CD8 on HPB-ALL cells) (A6NJW9 19-210 C51R/T71A, chain 2 of 2): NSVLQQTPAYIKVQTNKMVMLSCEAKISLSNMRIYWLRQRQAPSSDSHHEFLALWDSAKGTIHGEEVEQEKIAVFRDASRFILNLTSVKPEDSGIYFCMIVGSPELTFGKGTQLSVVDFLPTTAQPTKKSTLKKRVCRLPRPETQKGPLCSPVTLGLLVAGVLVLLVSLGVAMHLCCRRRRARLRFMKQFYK

B1: IAB2M γ2 EH1 (other)
chain: DIVMTQSPSSLSASVGDRVTITCKASQDVGTAVDWYQQKPGKAPKLLIYWASTRHTGVPDRFTGSGSGTDFTLTISSLQPEDFADYFCQQYNSYPLTFGGGTKLEIKGSTSGGGSGGGSGGGGSSEVQLVQSGAEVKKPGASVKISCKTSGYTFTEYTIHWVKQASGKGLEWIGNINPNNGGTTYNQKFEDRATLTVDKSTSTAYMELSSLRSEDTAVYYCAAGWNFDYWGQGTTVTVSSERKCCVECPPCPGGGSSGGGSGGQPREPQVYTLPPSREEMTKNQVSLTCLVKGFYPSDIAVEWESNGQPENNYKTTPPMLDSDGSFFLYSKLTVDKSRWQQGNVFSCSVMHEALHNHYTQKSLSLSPGK
[1]
  EC50: 0.27 nM

B2: IAB2M γ1 EH2 (other)
chain: DIVMTQSPSSLSASVGDRVTITCKASQDVGTAVDWYQQKPGKAPKLLIYWASTRHTGVPDRFTGSGSGTDFTLTISSLQPEDFADYFCQQYNSYPLTFGGGTKLEIKGSTSGGGSGGGSGGGGSSEVQLVQSGAEVKKPGASVKISCKTSGYTFTEYTIHWVKQASGKGLEWIGNINPNNGGTTYNQKFEDRATLTVDKSTSTAYMELSSLRSEDTAVYYCAAGWNFDYWGQGTTVTVSSEPKSSDKTHTCPPCGGGSSGGGSGGQPREPQVYTLPPSRDELTKNQVSLTCLVKGFYPSDIAVEWESNGQPENNYKTTPPVLDSDGSFFLYSKLTVDKSRWQQGNVFSCSVMHEALHNHYTQKSLSLSPGK
[1]
  EC50: 0.26 nM
[2]
  EC50: 0.06 nM

B3: IAB2M γ1 EH1 (other)
chain: DIVMTQSPSSLSASVGDRVTITCKASQDVGTAVDWYQQKPGKAPKLLIYWASTRHTGVPDRFTGSGSGTDFTLTISSLQPEDFADYFCQQYNSYPLTFGGGTKLEIKGSTSGGGSGGGSGGGGSSEVQLVQSGAEVKKPGASVKISCKTSGYTFTEYTIHWVKQASGKGLEWIGNINPNNGGTTYNQKFEDRATLTVDKSTSTAYMELSSLRSEDTAVYYCAAGWNFDYWGQGTTVTVSSEPKSCDKTHTCPPCGGGSSGGGSGGQPREPQVYTLPPSRDELTKNQVSLTCLVKGFYPSDIAVEWESNGQPENNYKTTPPVLDSDGSFFLYSKLTVDKSRWQQGNVFSCSVMHEALHNHYTQKSLSLSPGK
[1]
  EC50: 0.4 nM
[2]
  EC50: 0.05 nM

B4: IAB22M γ2 EH2 (other)
chain: DVQITQSPSSLSASVGDRVTITCRTSRSISQYLAWYQQKPGKVPKLLIYSGSTLQSGVPSRFSGSGSGTDFTLTISSLQPEDVATYYCQQHNENPLTFGGGTKVEIKGSTSGGGSGGGSGGGGSSEVQLVESGGGLVQPGGSLRLSCAASGFNIKDTYIHFVRQAPGKGLEWIGRIDPANDNTLYASKFQGKATISADTSKNTAYLQMNSLRAEDTAVYYCGRGYGYYVFDHWGQGTLVTVSSERKSCVECPPCPGGGSSGGGSGGQPREPQVYTLPPSREEMTKNQVSLTCLVKGFYPSDIAVEWESNGQPENNYKTTPPMLDSDGSFFLYSKLTVDKSRWQQGNVFSCSVMHEALHNHYTQKSLSLSPGK
[3]
  EC50: 0.156 nM

B5: IAB22M γ1 EH3 (other)
chain: DVQITQSPSSLSASVGDRVTITCRTSRSISQYLAWYQQKPGKVPKLLIYSGSTLQSGVPSRFSGSGSGTDFTLTISSLQPEDVATYYCQQHNENPLTFGGGTKVEIKGSTSGGGSGGGSGGGGSSEVQLVESGGGLVQPGGSLRLSCAASGFNIKDTYIHFVRQAPGKGLEWIGRIDPANDNTLYASKFQGKATISADTSKNTAYLQMNSLRAEDTAVYYCGRGYGYYVFDHWGQGTLVTVSSEPKSSDKTHTCPPCPPCGGGSSGGGSGGQPREPQVYTLPPSRDELTKNQVSLTCLVKGFYPSDIAVEWESNGQPENNYKTTPPVLDSDGSFFLYSKLTVDKSRWQQGNVFSCSVMHEALHNHYTQKSLSLSPGK
[3]
  EC50: 0.37 nM

B6: IAB2M γ3/γ1 EH7 (other)
chain: DIVMTQSPSSLSASVGDRVTITCKASQDVGTAVDWYQQKPGKAPKLLIYWASTRHTGVPDRFTGSGSGTDFTLTISSLQPEDFADYFCQQYNSYPLTFGGGTKLEIKGSTSGGGSGGGSGGGGSSEVQLVQSGAEVKKPGASVKISCKTSGYTFTEYTIHWVKQASGKGLEWIGNINPNNGGTTYNQKFEDRATLTVDKSTSTAYMELSSLRSEDTAVYYCAAGWNFDYWGQGTTVTVSSELKTPLGDTTHTCPPCPPCGGGSSGGGSGGQPREPQVYTLPPSRDELTKNQVSLTCLVKGFYPSDIAVEWESNGQPENNYKTTPPVLDSDGSFFLYSKLTVDKSRWQQGNVFSCSVMHEALHNHYTQKSLSLSPGK
[4]
  EC50: 0.186 nM

B7: IAB22M γ3/γ1 EH7 (other)
chain: DVQITQSPSSLSASVGDRVTITCRTSRSISQYLAWYQQKPGKVPKLLIYSGSTLQSGVPSRFSGSGSGTDFTLTISSLQPEDVATYYCQQHNENPLTFGGGTKVEIKGSTSGGGSGGGSGGGGSSEVQLVESGGGLVQPGGSLRLSCAASGFNIKDTYIHFVRQAPGKGLEWIGRIDPANDNTLYASKFQGKATISADTSKNTAYLQMNSLRAEDTAVYYCGRGYGYYVFDHWGQGTLVTVSSELKTPLGDTTHTCPPCPPCGGGSSGGGSGGQPREPQVYTLPPSRDELTKNQVSLTCLVKGFYPSDIAVEWESNGQPENNYKTTPPVLDSDGSFFLYSKLTVDKSRWQQGNVFSCSVMHEALHNHYTQKSLSLSPGK
[3]
  EC50: 0.17 nM

B8: IAB22M γ3/γ1 EH6 (other)
chain: DVQITQSPSSLSASVGDRVTITCRTSRSISQYLAWYQQKPGKVPKLLIYSGSTLQSGVPSRFSGSGSGTDFTLTISSLQPEDVATYYCQQHNENPLTFGGGTKVEIKGSTSGGGSGGGSGGGGSSEVQLVESGGGLVQPGGSLRLSCAASGFNIKDTYIHFVRQAPGKGLEWIGRIDPANDNTLYASKFQGKATISADTSKNTAYLQMNSLRAEDTAVYYCGRGYGYYVFDHWGQGTLVTVSSELKTPLGDTTHTCVECPPCGGGSSGGGSGGQPREPQVYTLPPSRDELTKNQVSLTCLVKGFYPSDIAVEWESNGQPENNYKTTPPVLDSDGSFFLYSKLTVDKSRWQQGNVFSCSVMHEALHNHYTQKSLSLSPGK
[3]
  EC50: 0.188 nM

B9: IAB2M γ3/γ1 EH8 (other)
chain: DIVMTQSPSSLSASVGDRVTITCKASQDVGTAVDWYQQKPGKAPKLLIYWASTRHTGVPDRFTGSGSGTDFTLTISSLQPEDFADYFCQQYNSYPLTFGGGTKLEIKGSTSGGGSGGGSGGGGSSEVQLVQSGAEVKKPGASVKISCKTSGYTFTEYTIHWVKQASGKGLEWIGNINPNNGGTTYNQKFEDRATLTVDKSTSTAYMELSSLRSEDTAVYYCAAGWNFDYWGQGTTVTVSSELKTPLGDTTHTCPPCPPCPPCGGGSSGGGSGGQPREPQVYTLPPSRDELTKNQVSLTCLVKGFYPSDIAVEWESNGQPENNYKTTPPVLDSDGSFFLYSKLTVDKSRWQQGNVFSCSVMHEALHNHYTQKSLSLSPGK
[4]
  EC50: 0.227 nM

B10: IAB2M γ1 EH5 (other)
chain: DIVMTQSPSSLSASVGDRVTITCKASQDVGTAVDWYQQKPGKAPKLLIYWASTRHTGVPDRFTGSGSGTDFTLTISSLQPEDFADYFCQQYNSYPLTFGGGTKLEIKGSTSGGGSGGGSGGGGSSEVQLVQSGAEVKKPGASVKISCKTSGYTFTEYTIHWVKQASGKGLEWIGNINPNNGGTTYNQKFEDRATLTVDKSTSTAYMELSSLRSEDTAVYYCAAGWNFDYWGQGTTVTVSSEPKSSDKTHTCPPCPPCPPCGGGSSGGGSGGQPREPQVYTLPPSRDELTKNQVSLTCLVKGFYPSDIAVEWESNGQPENNYKTTPPVLDSDGSFFLYSKLTVDKSRWQQGNVFSCSVMHEALHNHYTQKSLSLSPGK
[4]
  EC50: 0.183 nM

B11: IAB2M γ1 EH3 (other)
chain: DIVMTQSPSSLSASVGDRVTITCKASQDVGTAVDWYQQKPGKAPKLLIYWASTRHTGVPDRFTGSGSGTDFTLTISSLQPEDFADYFCQQYNSYPLTFGGGTKLEIKGSTSGGGSGGGSGGGGSSEVQLVQSGAEVKKPGASVKISCKTSGYTFTEYTIHWVKQASGKGLEWIGNINPNNGGTTYNQKFEDRATLTVDKSTSTAYMELSSLRSEDTAVYYCAAGWNFDYWGQGTTVTVSSEPKSSDKTHTCPPCPPCGGGSSGGGSGGQPREPQVYTLPPSRDELTKNQVSLTCLVKGFYPSDIAVEWESNGQPENNYKTTPPVLDSDGSFFLYSKLTVDKSRWQQGNVFSCSVMHEALHNHYTQKSLSLSPGK
[4]
  EC50: 0.162 nM
[1]
  EC50: 0.38 nM

B12: IAB2M γ3/γ1 EH6 (other)
chain: DIVMTQSPSSLSASVGDRVTITCKASQDVGTAVDWYQQKPGKAPKLLIYWASTRHTGVPDRFTGSGSGTDFTLTISSLQPEDFADYFCQQYNSYPLTFGGGTKLEIKGSTSGGGSGGGSGGGGSSEVQLVQSGAEVKKPGASVKISCKTSGYTFTEYTIHWVKQASGKGLEWIGNINPNNGGTTYNQKFEDRATLTVDKSTSTAYMELSSLRSEDTAVYYCAAGWNFDYWGQGTTVTVSSELKTPLGDTTHTCVECPPCGGGSSGGGSGGQPREPQVYTLPPSRDELTKNQVSLTCLVKGFYPSDIAVEWESNGQPENNYKTTPPVLDSDGSFFLYSKLTVDKSRWQQGNVFSCSVMHEALHNHYTQKSLSLSPGK
[4]
  EC50: 0.188 nM

B13: IAB22M γ3/γ1 EH8 (other)
chain: DVQITQSPSSLSASVGDRVTITCRTSRSISQYLAWYQQKPGKVPKLLIYSGSTLQSGVPSRFSGSGSGTDFTLTISSLQPEDVATYYCQQHNENPLTFGGGTKVEIKGSTSGGGSGGGSGGGGSSEVQLVESGGGLVQPGGSLRLSCAASGFNIKDTYIHFVRQAPGKGLEWIGRIDPANDNTLYASKFQGKATISADTSKNTAYLQMNSLRAEDTAVYYCGRGYGYYVFDHWGQGTLVTVSSELKTPLGDTTHTCPPCPPCPPCGGGSSGGGSGGQPREPQVYTLPPSRDELTKNQVSLTCLVKGFYPSDIAVEWESNGQPENNYKTTPPVLDSDGSFFLYSKLTVDKSRWQQGNVFSCSVMHEALHNHYTQKSLSLSPGK
[3]
  EC50: 0.163 nM

B14: IAB22M γ1 EH5 (other)
chain: DVQITQSPSSLSASVGDRVTITCRTSRSISQYLAWYQQKPGKVPKLLIYSGSTLQSGVPSRFSGSGSGTDFTLTISSLQPEDVATYYCQQHNENPLTFGGGTKVEIKGSTSGGGSGGGSGGGGSSEVQLVESGGGLVQPGGSLRLSCAASGFNIKDTYIHFVRQAPGKGLEWIGRIDPANDNTLYASKFQGKATISADTSKNTAYLQMNSLRAEDTAVYYCGRGYGYYVFDHWGQGTLVTVSSEPKSSDKTHTCPPCPPCPPCGGGSSGGGSGGQPREPQVYTLPPSRDELTKNQVSLTCLVKGFYPSDIAVEWESNGQPENNYKTTPPVLDSDGSFFLYSKLTVDKSRWQQGNVFSCSVMHEALHNHYTQKSLSLSPGK
[3]
  EC50: 0.146 nM
